Data taken from the supplement of paper PMC10724198.
± gives the standard deviation of the averaged measurements.

What was measured:
Saccharomyces cerevisiae [1] = assay: protein stability index of tFT-peptide fusion (C-terminal peptide) (PSI (0-1 scale)); higher = more stable (slower turnover)
Procedure: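 MPS profiling in S. cerevisiae of the tFT-X12 degron library: putative degron peptides plus stable controls, 12 aa, fused to the C-terminus of a sfGFP-mCherry timer. Cells are FACS-sorted into 8 mCherry/sfGFP bins and deep-sequenced. PSI runs from 0 (unstable) to 1 (stable). Backgrounds are wild type, das1Δ and doa10Δ at 30 °C, and wild type, das1Δ, cdc34-1 and cdc53-1 at 37 °C; 2-3 technical replicates each.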

Saccharomyces cerevisiae [2] = assay: as above; conditions: genetic background: wild type; temperature: 30 C
[3] = genetic background: cdc34-1, temperature: 37 C
[4] = genetic background: cdc53-1, temperature: 37 C
[5] = genetic background: das1 deletion, temperature: 30 C
[6] = genetic background: das1 deletion, temperature: 37 C
[7] = genetic background: doa10 deletion, temperature: 30 C
[8] = genetic background: wild type, temperature: 30 C
[9] = genetic background: wild type, temperature: 37 C
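Note: PSI is a weighted mean of sequencing reads over stability bins, variants kept only with over 10 reads, mCherry proximal and sfGFP distal, peptide attached via GGGS linker.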

## LQIKSFTSQRLA
Saccharomyces cerevisiae [1]; [3]
  protein stability index: 0.509 ± 0.021
Saccharomyces cerevisiae [1]; [4]
  protein stability index: 0.698 ± 0.0074
Saccharomyces cerevisiae [1]; [5]
  protein stability index: 0.6421 ± 0.0063
Saccharomyces cerevisiae [1]; [6]
  protein stability index: 0.72398 ± 0.0003
Saccharomyces cerevisiae [1]; [7]
  protein stability index: 0.0758 ± 0.016
Saccharomyces cerevisiae [1]; [8]
  protein stability index: 0.0902 ± 0.037
Saccharomyces cerevisiae [1]; [9]
  protein stability index: 0.0965 ± 0.038
Saccharomyces cerevisiae [2]
  protein stability index: 0.158 ± 0.021

## SPSSLPRPLFLS
Saccharomyces cerevisiae [1]; [3]
  protein stability index: 0.592 ± 0.015
Saccharomyces cerevisiae [1]; [4]
  protein stability index: 0.726 ± 0.017
Saccharomyces cerevisiae [1]; [5]
  protein stability index: 0.616 ± 0.015
Saccharomyces cerevisiae [1]; [6]
  protein stability index: 0.7356 ± 0.0018
Saccharomyces cerevisiae [1]; [7]
  protein stability index: 0.138 ± 0.033
Saccharomyces cerevisiae [1]; [8]
  protein stability index: 0.163 ± 0.02
Saccharomyces cerevisiae [1]; [9]
  protein stability index: 0.289 ± 0.026
Saccharomyces cerevisiae [2]
  protein stability index: 0.261 ± 0.053

## GGGVGVVWVRLG
Saccharomyces cerevisiae [1]; [3]
  protein stability index: 0.429 ± 0.03
Saccharomyces cerevisiae [1]; [4]
  protein stability index: 0.678 ± 0.035
Saccharomyces cerevisiae [1]; [5]
  protein stability index: 0.618 ± 0.013
Saccharomyces cerevisiae [1]; [6]
  protein stability index: 0.72 ± 0.024
Saccharomyces cerevisiae [1]; [7]
  protein stability index: 0.0905 ± 0.017
Saccharomyces cerevisiae [1]; [8]
  protein stability index: 0.114 ± 0.014
Saccharomyces cerevisiae [1]; [9]
  protein stability index: 0.137 ± 0.017
Saccharomyces cerevisiae [2]
  protein stability index: 0.256 ± 0.028

## AGESLRAIAVLY
Saccharomyces cerevisiae [1]; [3]
  protein stability index: 0.647 ± 0.06
Saccharomyces cerevisiae [1]; [4]
  protein stability index: 0.715 ± 0.025
Saccharomyces cerevisiae [1]; [5]
  protein stability index: 0.588 ± 0.0077
Saccharomyces cerevisiae [1]; [6]
  protein stability index: 0.6605 ± 0.004
Saccharomyces cerevisiae [1]; [7]
  protein stability index: 0.258 ± 0.016
Saccharomyces cerevisiae [1]; [8]
  protein stability index: 0.292 ± 0.018
Saccharomyces cerevisiae [1]; [9]
  protein stability index: 0.47738 ± 0.00044
Saccharomyces cerevisiae [2]
  protein stability index: 0.42 ± 0.018

## GYLFICSWCEGF
Saccharomyces cerevisiae [1]; [3]
  protein stability index: 0.46 ± 0.059
Saccharomyces cerevisiae [1]; [4]
  protein stability index: 0.503 ± 0.01
Saccharomyces cerevisiae [1]; [5]
  protein stability index: 0.363 ± 0.023
Saccharomyces cerevisiae [1]; [6]
  protein stability index: 0.503 ± 0.029
Saccharomyces cerevisiae [1]; [7]
  protein stability index: 0.352 ± 0.028
Saccharomyces cerevisiae [1]; [8]
  protein stability index: 0.346 ± 0.018
Saccharomyces cerevisiae [1]; [9]
  protein stability index: 0.4849 ± 0.0034
Saccharomyces cerevisiae [2]
  protein stability index: 0.427 ± 0.048

## VLVTFFIRSGVS
Saccharomyces cerevisiae [1]; [3]
  protein stability index: 0.456 ± 0.0087
Saccharomyces cerevisiae [1]; [4]
  protein stability index: 0.54 ± 0.0081
Saccharomyces cerevisiae [1]; [5]
  protein stability index: 0.356 ± 0.042
Saccharomyces cerevisiae [1]; [6]
  protein stability index: 0.536 ± 0.018
Saccharomyces cerevisiae [1]; [7]
  protein stability index: 0.311 ± 0.01
Saccharomyces cerevisiae [1]; [8]
  protein stability index: 0.338 ± 0.028
Saccharomyces cerevisiae [1]; [9]
  protein stability index: 0.49942 ± 1.4e-06
Saccharomyces cerevisiae [2]
  protein stability index: 0.411 ± 0.045

## LFSVLVFIYFVM
Saccharomyces cerevisiae [1]; [3]
  protein stability index: 0.102 ± 0.032
Saccharomyces cerevisiae [1]; [4]
  protein stability index: 0.113 ± 0.017
Saccharomyces cerevisiae [1]; [5]
  protein stability index: 0.169 ± 0.034
Saccharomyces cerevisiae [1]; [6]
  protein stability index: 0.288 ± 0.07
Saccharomyces cerevisiae [1]; [7]
  protein stability index: 0.17 ± 0.016
Saccharomyces cerevisiae [1]; [8]
  protein stability index: 0.133 ± 0.0054
Saccharomyces cerevisiae [1]; [9]
  protein stability index: 0.217 ± 0.025
Saccharomyces cerevisiae [2]
  protein stability index: 0.127 ± 0.022

## IFLKFGLLRSLL
Saccharomyces cerevisiae [1]; [3]
  protein stability index: 0.9386 ± 0.006
Saccharomyces cerevisiae [1]; [4]
  protein stability index: 0.8936 ± 0.0072
Saccharomyces cerevisiae [1]; [5]
  protein stability index: 0.744 ± 0.012
Saccharomyces cerevisiae [1]; [6]
  protein stability index: 0.85 ± 0.031
Saccharomyces cerevisiae [1]; [7]
  protein stability index: 0.6161 ± 0.0027
Saccharomyces cerevisiae [1]; [8]
  protein stability index: 0.628 ± 0.046
Saccharomyces cerevisiae [1]; [9]
  protein stability index: 0.792 ± 0.053
Saccharomyces cerevisiae [2]
  protein stability index: 0.488 ± 0.026

## FIICAASWFFLG
Saccharomyces cerevisiae [1]; [3]
  protein stability index: 0.456 ± 0.025
Saccharomyces cerevisiae [1]; [4]
  protein stability index: 0.624 ± 0.032
Saccharomyces cerevisiae [1]; [5]
  protein stability index: 0.474 ± 0.036
Saccharomyces cerevisiae [1]; [6]
  protein stability index: 0.62 ± 0.02
Saccharomyces cerevisiae [1]; [7]
  protein stability index: 0.109 ± 0.014
Saccharomyces cerevisiae [1]; [8]
  protein stability index: 0.127 ± 0.016
Saccharomyces cerevisiae [1]; [9]
  protein stability index: 0.225 ± 0.079
Saccharomyces cerevisiae [2]
  protein stability index: 0.224 ± 0.025
